Experimental data published in US11053476B2, “Generation of cancer stem cells and use thereof” (EXOSTEM BIOTEC LTD., priority 2016, dated 2021).

Key:
Assay type in all cases: cell-based
[1] = tested on: differentiated cancer cells; assay: Efficacy and penetrance of dedifferentiation with transcription and secreted factors; settings: expression in the cells or in their media during second incubation or tumorsphere formation
Description: (§1) In order to generate CSCs in vitro, both primary differentiated cancer cells (primary glioma cells) as well as cells from a cancer cell line (U87 cells) were obtained. Glioma cells and U87 cells were trypsinized, and washed three times with medium +10% FCS. The cells were then resuspended in medium that was brought to a pH of 6.0 and were placed on a rotator and incubated for 45-90 minutes. The cells were then incubated in medium supplemented with EGF and FGF. The cells were optionally kept in mild hypoxic conditions (2-3% oxygen) during this second incubation and were then plated on bacterial plates.
(§2) Tumorspheres formed on these plates within one week and were removed from the cells that had attached to the dish. The tumorspheres were disaggregated and the cells were re-plated at limiting dilution to generate secondary spheroids. The secondary tumorspheres were then characterized for CSC specific markers, the ability to self-renew and the ability to generate tumors that recapitulate the parental tumors.
Lastly, several transcription factors and secreted factors that are known to enhance stemness or cancer progression were introduced into the differentiated cells during the second incubation or during tumorsphere formation.

[2] = tested on: CSCs generated from differentiated cancer cells; assay: Self-renewal of CSCs (secondary tumorspheres) generated from differentiated cancer cells, factor added to basic protocol
Description: as §1, §2
Knowing that the basic protocol for generating CSCs (acid, EGF/FGF and two rounds of sphere generation) was successful; several modifications to the protocol were examined. […]

[3] = tested on: Sox2; assay: Sox2 expression in generated CSCs, factor added to basic protocol
Description: as §1, §2
Knowing that the basic protocol for generating CSCs (acid, EGF/FGF and two rounds of sphere generation) was successful; several modifications to the protocol were examined. […] Second, a wide range of factors were found, that when supplemented to the EGF and FGF containing media, increased the efficacy of the protocol, either by increasing the number of CSCs produced or by increasing their stemness.

B1: RUNX2: transcription or secreted factor expressed in the cells or in their media (protein, UniProt Q13950 1-521, looked up)
Runt-related transcription …: MASNSLFSTVTPCQQNFFWDPSTSRRFSPPSSSLQPGKMSDVSPVVAAQQQQQQQQQQQQQQQQQQQQQQQEAAAAAAAAAAAAAAAAAVPRLRPPHDNRTMVEIIADHPAELVRTDSPNFLCSVLPSHWRCNKTLPVAFKVVALGEVPDGTVVTVMAGNDENYSAELRNASAVMKNQVARFNDLRFVGRSGRGKSFTLTITVFTNPPQVATYHRAIKVTVDGPREPRRHRQKLDDSKPSLFSDRLSDLGRIPHPSMRVGVPPQNPRPSLNSAPSPFNPQGQSQITDPRQAQSSPPWSYDQSYPSYLSQMTSPSIHSTTPLSSTRGTGLPAITDVPRRISDDDTATSDFCLWPSTLSKKSQAGASELGPFSDPRQFPSISSLTESRFSNPRMHYPATFTYTPPVTSGMSLGMSATTHYHTYLPPPYPGSSQSQSGPFQTSSTPYLYYGTSSGSYQFPMVPGGDRSPSRMLPPCTTTSNGSTLLNPNLPNQNDGVDADGSHSSSPTVLNSSGRMDESVWRPY
- effect on dedifferentiation brought about by the standard protocol [1]: increase the efficacy and penetrance of the dedifferentiation

B2: COX2: transcription or secreted factor expressed in the cells or in their media (protein, UniProt P35354 18-604, looked up)
Prostaglandin G/H synthase 2: ANPCCSHPCQNRGVCMSVGFDQYKCDCTRTGFYGENCSTPEFLTRIKLFLKPTPNTVHYILTHFKGFWNVVNNIPFLRNAIMSYVLTSRSHLIDSPPTYNADYGYKSWEAFSNLSYYTRALPPVPDDCPTPLGVKGKKQLPDSNEIVEKLLLRRKFIPDPQGSNMMFAFFAQHFTHQFFKTDHKRGPAFTNGLGHGVDLNHIYGETLARQRKLRLFKDGKMKYQIIDGEMYPPTVKDTQAEMIYPPQVPEHLRFAVGQEVFGLVPGLMMYATIWLREHNRVCDVLKQEHPEWGDEQLFQTSRLILIGETIKIVIEDYVQHLSGYHFKLKFDPELLFNKQFQYQNRIAAEFNTLYHWHPLLPDTFQIHDQKYNYQQFIYNNSILLEHGITQFVESFTRQIAGRVAGGRNVPPAVQKVSQASIDQSRQMKYQSFNEYRKRFMLKPYESFEELTGEKEMSAELEALYGDIDAVELYPALLVEKPRPDAIFGETMVEVGAPFSLKGLMGNVICSPAYWKPSTFGGEVGFQIINTASIQSLICNNVKGCPFTSFSVPDPELIKTVTINASSSRSGLDDINPTVLLKERSTEL
- effect on dedifferentiation brought about by the standard protocol [1]: increase the efficacy and penetrance of the dedifferentiation

B3: IL10: anti-inflammatory cytokine (protein, UniProt P22301 19-178, looked up)
Interleukin-10: SPGQGTQSENSCTHFPGNLPNMLRDLRDAFSRVKTFFQMKDQLDNLLLKESLLEDFKGYLGCQALSEMIQFYLEEVMPQAENQDPDIKAHVNSLGENLKTLRLRLRRCHRFLPCENKSKAVEQVKNAFNKLQEKGIYKAMSEFDIFINYIEAYMTMKIRN
- effect on rate of self-renewal ([2]; cytokine supplemented to second incubation media, FIG. 4A): no effect
- effect on Sox2 expression ([3]; cytokine supplemented to second incubation media, FIG. 4B): no effect

B4: WNT5A: transcription or secreted factor expressed in the cells or in their media (protein, UniProt P41221 62-380, looked up)
Protein Wnt-5a: IIGAQPLCSQLAGLSQGQKKLCHLYQDHMQYIGEGAKTGIKECQYQFRHRRWNCSTVDNTSVFGRVMQIGSRETAFTYAVSAAGVVNAMSRACREGELSTCGCSRAARPKDLPRDWLWGGCGDNIDYGYRFAKEFVDARERERIHAKGSYESARILMNLHNNEAGRRTVYNLADVACKCHGVSGSCSLKTCWLQLADFRKVGDALKEKYDSAAAMRLNSRGKLVQVNSRFNSPTTQDLVYIDPSPDYCVRNESTGSLGTQGRLCNKTSEGMDGCELMCCGRGYDQFKTVQTERCHCKFHWCCYVKCKKCTEIVDQFVCK
- effect on dedifferentiation brought about by the standard protocol [1]: increase the efficacy and penetrance of the dedifferentiation

B5: CEBP/B: transcription or secreted factor expressed in the cells or in their media (protein, UniProt P17676 1-345, looked up)
CCAAT/enhancer-binding …: MQRLVAWDPACLPLPPPPPAFKSMEVANFYYEADCLAAAYGGKAAPAAPPAARPGPRPPAGELGSIGDHERAIDFSPYLEPLGAPQAPAPATATDTFEAAPPAPAPAPASSGQHHDFLSDLFSDDYGGKNCKKPAEYGYVSLGRLGAAKGALHPGCFAPLHPPPPPPPPPAELKAEPGFEPADCKRKEEAGAPGGGAGMAAGFPYALRAYLGYQAVPSGSSGSLSTSSSSSPPGTPSPADAKAPPTACYAGAAPAPSQVKSKAKKTVDKHSDEYKIRRERNNIAVRKSRDKAKMRNLETQHKVLELTAENERLQKKVEQLSRELSTLRNLFKQLPEPLLASSGHC
- effect on dedifferentiation brought about by the standard protocol [1]: increase the efficacy and penetrance of the dedifferentiation

B6: PKC epsilon: protein kinase C epsilon; activators or overexpression (protein, UniProt Q02156 1-737, looked up)
Protein kinase C epsilon type: MVVFNGLLKIKICEAVSLKPTAWSLRHAVGPRPQTFLLDPYIALNVDDSRIGQTATKQKTNSPAWHDEFVTDVCNGRKIELAVFHDAPIGYDDFVANCTIQFEELLQNGSRHFEDWIDLEPEGRVYVIIDLSGSSGEAPKDNEERVFRERMRPRKRQGAVRRRVHQVNGHKFMATYLRQPTYCSHCRDFIWGVIGKQGYQCQVCTCVVHKRCHELIITKCAGLKKQETPDQVGSQRFSVNMPHKFGIHNYKVPTFCDHCGSLLWGLLRQGLQCKVCKMNVHRRCETNVAPNCGVDARGIAKVLADLGVTPDKITNSGQRRKKLIAGAESPQPASGSSPSEEDRSKSAPTSPCDQEIKELENNIRKALSFDNRGEEHRAASSPDGQLMSPGENGEVRQGQAKRLGLDEFNFIKVLGKGSFGKVMLAELKGKDEVYAVKVLKKDVILQDDDVDCTMTEKRILALARKHPYLTQLYCCFQTKDRLFFVMEYVNGGDLMFQIQRSRKFDEPRSRFYAAEVTSALMFLHQHGVIYRDLKLDNILLDAEGHCKLADFGMCKEGILNGVTTTTFCGTPDYIAPEILQELEYGPSVDWWALGVLMYEMMAGQPPFEADNEDDLFESILHDDVLYPVWLSKEAVSILKAFMTKNPHKRLGCVASQNGEDAIKQHPFFKEIDWVLLEQKKIKPPFKPRIKTKRDVNNFDQDFTREEPVLTLVDEAIVKQINQEEFKGFSYFGEDLMP
- effect on Sox2 expression ([3]; PKC activation, FIG. 6B): increase Sox2 expression
- effectiveness on Sox2 expression compared with PMA ([3]; PKC activation, FIG. 6B): more effective that PMA

B7: Lin-28: overexpressed factor, called miR in b196 and protein in b22 (protein, UniProt Q9H9Z2 2-209, looked up)
Protein lin-28 homolog A: GSVSNQQFAGGCAKAAEEAPEEAPEDAARAADEPQLLHGAGICKWFNVRMGFGFLSMTARAGVALDPPVDVFVHQSKLHMEGFRSLKEGEAVEFTFKKSAKGLESIRVTGPGGVFCIGSERRPKGKSMQKRRSKGDRCYNCGGLDHHAKECKLPPQPKKCHFCQSISHMVASCPLKAQQGPSAQGKPTYFREEEEEIHSPTLLPEAQN
- self-renewal over the basic protocol ([2]; overexpressed miR or polynucleotide inhibitor, FIG. 7A): improved
- Sox2 expression over the basic protocol ([3]; overexpressed miR or polynucleotide inhibitor, FIG. 7B): improved
